± gives the uncertainty stated by the source.
B1: Membrane-associated guanylate kinase, WW and PDZ domain-containing protein 1, residues 352 to 401; numbered along this chain, Q96QZ7 (parent)
chain: TEELDSELELPAGWEKIEDPVYGIYYVDHINRKTQYENPVLEAKRKKQLE

Variants of: B1
Experiment: abundance fitness (aPCA) (normalised: wild type 0, dead -1); higher = more abundant; growth selection in yeast, the domain comes from the species named
Details: Homo sapiens

| Variant | abundance fitness |
| --- | --- |
| N38S | -0.066 ± 0.065 |
| N38T | -0.341 ± 0.068 |
| N38W | -0.138 ± 0.072 |
| N38Y | -0.365 ± 0.097 |
| P39A | -0.379 ± 0.042 |
| P39C | -0.817 ± 0.12 |
| P39D | -0.314 ± 0.098 |
| P39E | -0.466 ± 0.057 |
| P39F | -1 ± 0.17 |
| P39G | -0.393 ± 0.057 |
| P39H | -1.3 ± 0.28 |
| P39I | -1.04 ± 0.23 |
| P39K | -0.857 ± 0.15 |
| P39L | -0.615 ± 0.048 |
| P39M | -0.714 ± 0.086 |
| P39Q | -0.447 ± 0.087 |
| P39R | -0.648 ± 0.046 |
| P39S | -0.597 ± 0.069 |
| P39V | -0.699 ± 0.062 |
| P39W | -0.894 ± 0.072 |
| P39Y | -1.21 ± 0.23 |
| V40A | 0.068 ± 0.05 |
| V40E | -0.25 ± 0.073 |
| V40F | -0.385 ± 0.1 |

| Variant | abundance fitness |
| --- | --- |
| V40G | -0.047 ± 0.053 |
| V40I | -0.197 ± 0.087 |
| V40K | -0.055 ± 0.041 |
| V40L | -0.016 ± 0.038 |
| V40M | -0.033 ± 0.05 |
| V40N | -0.038 ± 0.1 |
| V40P | -0.404 ± 0.099 |
| V40Q | -0.385 ± 0.069 |
| V40R | -0.099 ± 0.054 |
| V40S | -0.026 ± 0.061 |
| V40T | 0.006 ± 0.08 |
| V40W | -0.177 ± 0.053 |
| V40Y | -0.237 ± 0.086 |
| L41A | 0.038 ± 0.05 |
| L41C | -0.116 ± 0.075 |
| L41E | -0.053 ± 0.071 |
| L41F | 0.064 ± 0.087 |
| L41G | -0.094 ± 0.04 |
| L41H | 0.032 ± 0.044 |
| L41I | -0.324 ± 0.11 |
| L41K | -0.035 ± 0.078 |
| L41M | 0.03 ± 0.074 |
| L41N | -0.137 ± 0.12 |
| L41P | -0.128 ± 0.07 |

| Variant | abundance fitness |
| --- | --- |
| L41Q | 0.001 ± 0.044 |
| L41R | -0.039 ± 0.037 |
| L41S | -0.011 ± 0.055 |
| L41T | -0.058 ± 0.076 |
| L41V | 0.001 ± 0.045 |
| L41W | -0.114 ± 0.042 |
| L41Y | -0.021 ± 0.075 |
| E42A | -0.225 ± 0.05 |
| E42C | -0.297 ± 0.046 |
| E42D | -0.192 ± 0.062 |
| E42F | -0.535 ± 0.13 |
| E42G | -0.137 ± 0.038 |
| E42H | -0.599 ± 0.17 |
| E42I | -0.117 ± 0.087 |
| E42K | -0.505 ± 0.091 |
| E42L | -0.231 ± 0.048 |
| E42N | -0.285 ± 0.069 |
| E42P | -0.361 ± 0.05 |
| E42Q | -0.222 ± 0.081 |
| E42R | -0.565 ± 0.053 |
| E42T | -0.086 ± 0.042 |
| E42V | -0.149 ± 0.043 |
| E42W | -0.26 ± 0.051 |
| E42Y | -0.366 ± 0.055 |

| Variant | abundance fitness |
| --- | --- |
| A43C | -0.246 ± 0.078 |
| A43D | 0.003 ± 0.049 |
| A43E | -0.011 ± 0.053 |
| A43F | -0.357 ± 0.1 |
| A43G | -0.137 ± 0.05 |
| A43H | -0.161 ± 0.087 |
| A43I | -0.092 ± 0.088 |
| A43K | -0.236 ± 0.1 |
| A43L | -0.012 ± 0.059 |
| A43M | -0.044 ± 0.08 |
| A43N | -0.014 ± 0.047 |
| A43P | -0.184 ± 0.079 |
| A43Q | -0.024 ± 0.047 |
| A43R | -0.11 ± 0.042 |
| A43T | 0.045 ± 0.064 |
| A43V | -0.131 ± 0.042 |
| A43W | -0.231 ± 0.069 |
| A43Y | -0.33 ± 0.1 |
| K44A | -0.079 ± 0.051 |
| K44C | -0.03 ± 0.078 |
| K44D | -0.106 ± 0.082 |
| K44E | 0.019 ± 0.043 |
| K44F | -0.186 ± 0.072 |
| K44G | -0.068 ± 0.051 |

| Variant | abundance fitness |
| --- | --- |
| K44H | -0.196 ± 0.15 |
| K44I | -0.438 ± 0.13 |
| K44L | -0.061 ± 0.039 |
| K44M | -0.064 ± 0.07 |
| K44P | -0.27 ± 0.065 |
| K44Q | -0.086 ± 0.077 |
| K44R | -0.057 ± 0.045 |
| K44S | -0.106 ± 0.05 |
| K44T | -0.2 ± 0.07 |
| K44V | -0.286 ± 0.062 |
| K44W | -0.237 ± 0.046 |
| K44Y | -0.041 ± 0.068 |
| R45A | -0.193 ± 0.061 |
| R45C | -0.241 ± 0.082 |
| R45D | -0.171 ± 0.072 |
| R45E | 0.073 ± 0.047 |
| R45F | -0.248 ± 0.064 |
| R45G | -0.113 ± 0.039 |
| R45H | -0.564 ± 0.19 |
| R45K | 0.02 ± 0.062 |
| R45L | -0.302 ± 0.066 |

From the Human Domainome abundance scans (Beltran et al. 2025)
